According to patent US20140120095A1 (Boehringer Ingelheim, published 2014):

T1: PIGF (UniProt P49763-2 21-149, limits assumed)
T1 construct: also called placenta growth factor
T1 sequence (looked up): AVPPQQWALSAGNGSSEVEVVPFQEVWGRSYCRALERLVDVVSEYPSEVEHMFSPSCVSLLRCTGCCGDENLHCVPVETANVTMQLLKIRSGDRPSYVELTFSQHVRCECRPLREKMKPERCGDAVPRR

T2: VEGFB (UniProt P49765-2 22-188, limits assumed)
T2 sequence (looked up): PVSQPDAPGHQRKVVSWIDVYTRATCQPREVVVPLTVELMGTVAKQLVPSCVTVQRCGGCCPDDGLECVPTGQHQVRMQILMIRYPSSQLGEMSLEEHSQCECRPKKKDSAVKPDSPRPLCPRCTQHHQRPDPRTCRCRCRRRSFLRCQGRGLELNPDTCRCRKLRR

T3: VEGFD (UniProt O43915 93-201, limits assumed)
T3 sequence (looked up): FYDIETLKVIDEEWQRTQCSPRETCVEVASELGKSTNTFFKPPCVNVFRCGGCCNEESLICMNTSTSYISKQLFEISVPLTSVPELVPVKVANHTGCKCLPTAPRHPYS

T4: VEGFC (UniProt P49767 103-227, limits assumed)
T4 sequence (looked up): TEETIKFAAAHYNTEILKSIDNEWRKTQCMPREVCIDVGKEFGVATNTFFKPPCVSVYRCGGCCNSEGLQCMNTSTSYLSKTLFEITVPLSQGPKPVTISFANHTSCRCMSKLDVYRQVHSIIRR

B1: VEGFBII022 (VHH)
chain: EVQLVESGGGLVQTGDSLRLSCEVSGRTFSSYSMGWFRQAQGKEREFVVAISKGGYKYDSVSLEGRFTISKDNAKNTVYLQINSLKPEDTAVYYCASSRAYGSSRLRLADTYEYWGQGTQVTVSSGGGGSGGGSEVQLVESGGGLVQPGGSLRLSCVASGIRFMSMAWYRQAPGKHRELVARISSGGTTAYVDSVKGRFTISRDNSKNTVYLQMNSLKAEDTAVYYCNTFSSRPNPWGAGTQVTVSS
notes: bivalent (heterodimeric) VHH; also called VEGFBII23B04-9GS-5B05
B2: VEGFBII025 (VHH)
chain: EVQLVESGGGLVQAGGSLRLSCAASGRTFSNYAMGWFRQAPGKERVLVADISSSGINTYVADAVKGRFTISRDNAKNTVYLQMNSLKPEDTAVYYCAASAWWYSQMARDNYRYWGQGTQVTVSSGGGGSGGGGSGGGGSGGGGSGGGGSGGGGSGGGGSGGGGSEVQLVESGGGLVQTGDSLRLSCEVSGRTFSSYSMGWFRQAQGKEREFVVAISKGGYKYDSVSLEGRFTISKDNAKNTVYLQINSLKPEDTAVYYCASSRAYGSSRLRLADTYEYWGQGTQVTVSS
notes: bivalent (heterodimeric) VHH; also called VEGFBII10E07-40GS-23B04
B3: VEGFBII021 (VHH)
chain: EVQLVESGGGLVQTGDSLRLSCEVSGRTFSSYSMGWFRQAQGKEREFVVAISKGGYKYDSVSLEGRFTISKDNAKNTVYLQINSLKPEDTAVYYCASSRAYGSSRLRLADTYEYWGQGTQVTVSSGGGGSGGGGSGGGGSGGGGSGGGGSGGGGSGGGGSGGGGSEVQLVESGGGLVQPGGSLRLSCVASGIRFMSMAWYRQAPGKHRELVARISSGGTTAYVDSVKGRFTISRDNSKNTVYLQMNSLKAEDTAVYYCNTFSSRPNPWGAGTQVTVSS
notes: bivalent (heterodimeric) VHH; also called VEGFBII23B04-40GS-5B05
B4: VEGFBII024 (VHH)
chain: EVQLVESGGGLVQTGDSLRLSCEVSGRTFSSYSMGWFRQAQGKEREFVVAISKGGYKYDSVSLEGRFTISKDNAKNTVYLQINSLKPEDTAVYYCASSRAYGSSRLRLADTYEYWGQGTQVTVSSGGGGSGGGGSGGGGSGGGGSGGGGSGGGGSGGGGSGGGGSEVQLVESGGGLVQAGGSLRLSCTASGSAFKSYRMGWFRRTPGKEDEFVASISWTYGSTFYADSVKGRFTMSRDKAKNAGYLQMNSLKPEDTALYYCAAGAQSDRYNIRSYDYWGQGTQVTVSS
notes: bivalent (heterodimeric) VHH; also called VEGFBII23B04-40GS-86H09
B5: VEGFBII023 (VHH)
chain: EVQLVESGGGLVQTGDSLRLSCEVSGRTFSSYSMGWFRQAQGKEREFVVAISKGGYKYDSVSLEGRFTISKDNAKNTVYLQINSLKPEDTAVYYCASSRAYGSSRLRLADTYEYWGQGTQVTVSSGGGGSGGGGSGGGGSGGGGSGGGGSGGGGSGGGGSGGGGSEVQLVESGGGLVQAGGSLRLSCAASGRTFSNYAMGWFRQAPGKERVLVADISSSGINTYVADAVKGRFTISRDNAKNTVYLQMNSLKPEDTAVYYCAASAWWYSQMARDNYRYWGQGTQVTVSS
notes: bivalent (heterodimeric) VHH; also called VEGFBII23B04-40GS-10E07

Molecular target: T1, PIGF
Test: solid phase binding ELISA on coated PIGF (Example 12.8)
Protocol: (§1) Binding to VEGFB, VEGFC, VEGFD and PIGF is assessed via a solid phase binding ELISA. […] Wells are blocked with a casein solution (1% in PBS). […] As positive controls serial dilutions of the appropriate receptors are taken along and detected with horseradish peroxidase (HRP)-conjugated goat anti-human IgG, Fc specific antibody (Jackson Immuno Research Laboratories Inc., West Grove, Pa., USA) and a subsequent enzymatic reaction in the presence of the substrate TMB (3,3′,5,5′-tetramentylbenzidine) (Pierce, Rockford, Ill., USA).

| binding result | Binder |
| --- | --- |
| no binding (tested: about 5e-7 M) | B1 |
| no binding (tested: about 5e-7 M) | B2 |
| no binding (tested: about 5e-7 M) | B3 |
| no binding (tested: about 5e-7 M) | B4 |
| no binding (tested: about 5e-7 M) | B5 |

Molecular target: T2, VEGFB
Test: binding ELISA on coated VEGFB (Example 12.8), OD 450 nm
Protocol: as §1

| binding result | Binder |
| --- | --- |
| no binding (tested: 5e-7 M) | B1 |
| no binding (tested: 5e-7 M) | B2 |
| no binding (tested: 5e-7 M) | B3 |
| no binding (tested: 5e-7 M) | B4 |
| no binding (tested: 5e-7 M) | B5 |

Molecular target: T3, VEGFD
Test: solid phase binding ELISA on coated VEGF D (Example 12.8)
Protocol: as §1

| binding result | Binder |
| --- | --- |
| no binding (tested: about 5e-7 M) | B1 |
| no binding (tested: about 5e-7 M) | B2 |
| no binding (tested: about 5e-7 M) | B3 |
| no binding (tested: about 5e-7 M) | B4 |
| no binding (tested: about 5e-7 M) | B5 |

Molecular target: T4, VEGFC
Test: binding ELISA on coated VEGFC (Example 12.8), OD 450 nm
Protocol: as §1

| binding result | Binder |
| --- | --- |
| no binding (tested: 5e-7 M) | B1 |
| no binding (tested: 5e-7 M) | B2 |
| no binding (tested: 5e-7 M) | B3 |
| no binding (tested: 5e-7 M) | B4 |
| no binding (tested: 5e-7 M) | B5 |
